# In the DeepSol protein solubility set:
# Test: soluble on expression in E. coli; label from the status in PepcDB or PDB records
row,Sequence,soluble on expression in E. coli
1,MSLSSKRDIEANTDLNSITYIPTFPEPFERDNSHTTASFVSIQIRLLVASVTEENFLDTEHQIYYLLQRGSFSVYISYWKLLIQLFVNEFEAQQQKRDLNLPFRFDFSNLVHRLLYNLAQELITRTPDTIEKVKELALPLSGKYPIRPLFLSFLNKDNESDSAIIEALNPEVHPIFTTLKDLHRTNMSVSNITQNLFAVENKPNFLTMLSEFLKPLQGETLNDWIALILSEILAPGSQTSNQPSQPWIVQVPNVDVREVIEATEMGTKVNGIIKSLGTNNVNWNRVFNLMSTKFFLNKPVNATLSSLNYLFCILNSGPLVDQFFACDWSLYFKLRLSFLMYQWNYNSECLDLSSLPNIKKINKSIPLTKKSQLSLISVGKLNIELFLSRDEISKNPLFSSFHASFSEAYNNVPEYLAAVLISESKYFSLLVDNKSIIDELLISLVIKTYENNVIAFKELLKLVSKQKVIEVSRGIIASQNAQTINLVQALHDLGILDEVFEKLPIRDSLKLSPTAMHLGYLKFSEYIERNITLKTFVPTLDFIEAQTNIDELDPALKSVKLLNLHSLHSLIYRTANLKLSADERVALNNVIFKALISFPRLINYGYGHDDAIVANGDHAPIPQDVEKKMQTYLQKMYNKEMAIKDIVDILRKLRDSDDSNDQDIFCCIIHAVIAETTFFKEYPLEALATTSVLFGSMILFDLLRGFVLDVAFQIIYTFASESPDSKMFKFAVQALYAFRMRLNEYSPFCKRLLDEIPGLQTQPQIQQILTESAANPNVSEGHHHHHH,soluble
2,MSLSVEQANLILNHLPMEITFVNKEDIFQYYNDNTPADEMIFKRTPSQVGRNVELCHPPKYLDKVKTIMKGLREGSKDKYEMWFKSESRGKFVHITYAAVHDEDGEFQGVLEYVQDIQPYREIDTDYFRGLEEGHHHHHH,soluble
3,MSLTADTKRPLTLRDVSEASGVSEMTVSRVLRNRGDVSDATRARVLAAAKELGYVPNKIAGALASNRVNLVAVIIPSLSNMVFPEVLTGINQVLEDTELQPVVGVTDYLPEKEEKVLYEMLSWRPSGVIIAGLEHSEAARAMLDAAGIPVVEIMDSDGKPVDAMVGISHRRAGREMAQAILKAGYRRIGFMGTKMPLDYRARKRFEGFTEVLGKNGVEIEDREFYSGGSALAKGREMTQAMLERSPDLDFLYYSNDMIAAGGLLYLLEQGIDIPGQIGLAGFNNVELLQGLPRKLATMDACRLEIGRKAAEIIAKRLEDPEAEIETRITLEPKISYGDTLKREGHHHHHH,soluble
4,MSLTADVDYPLLAKMRSASRRALTSLVDWFGTMAQDLDHQGLTTLAGELVSVARLLDREAVVTRYLTVPAEDATPRIRLIERLVSGKVGAPTLEVLRTAVSKRWSANSDLIDAIEHVSRQALLELAERAGQVDEVEDQLFRFSRILDVQPRLAILLGDCAVPAEGRVRLLRKVLERADSTVNPVVVALLSHTVELLRGQAVEEAVLFLAEVAVARRGEIVAQVGAAAELSDAQRTRLTEVLSRIYGHPVTVQLHIDAALLGGLSIAVGDEVIDGTLSSRLAAAEARLPDEGHHHHHH,soluble
5,MSLTAIHRPTWVSVDLDAAAHNLQEIREWTKAKKVYAVLKADGYGLGAIPLAKAFQETASADALIVSNLDEALELRQADLTLPIWVLGAWDYSDLKLFIDHDIVITIPSLAWLQNLPDFEGTLKVSLAIDTGMTRIGFDKADEISAAKKIIDKNPQLDLFSVYTHFATADEAGEKSKAYFEEQLRRWQELTINQGFDPSLFSMANSATCIWHHDDPRISFAAIRPGQLISGVNVSNGELKMPPNLHLERIFSVCSEIADVRFVKKDQSLSYGASERMPEDGYVATLPFGYNDGWLRRMQKSSVIINGKRMPIIGRITMDQTMVKLDRKYPIGTRVTLIGKDGGEQITVEEVANYSHTIVDEIQTTLAPRIKRIYTGDLAEVIGANYGEGHHHHHH,soluble
6,MSLTARIGVVTFPGSLDDRDTQRAIKLAGAEPVALWHKDKDLKQVDAVVLPGGFSYGDYLRAGAISRFSPVMETVIEQAKSGMPVLGICNGFQILTEAHLLPGAMLGNNHLHFICRDQKLRVENADTAWTSDYEAGQEIHIPLKNMDGRYVADERTLDMLEAEGRVAFRYVVGGAAADGYGNPNGSLRDIAGITNEAGNVVGLMPHPEHAVEPLIGTGRTDGLPFFTSILKKLVNAEGHHHHHH,soluble
7,MSLTDLDRVGLPVFQAVRPMGRSLSVSQGKGMTSMAARVSAMMEAVEIWHAEQDLPTTLRATIRSLGTRRAMDPNQLLMPGRDKVCEDLPIVWCPSLNLLDGADVLVPRDAANLDFTRAPDPPMLARSTTGLAGGNTRDEARASAIAEVIERACQREFQRLPPASRAQRRLDPTCLASAHRGLADPIERIRSAGLHLDIFDMTNRFDVPAIRAVIYETTAGKPVAWPCLGHGAHLDPVTAVVRALTEAAQARLTGISGNRDDISPGHYAGADMSNWVLRAMNGMDMSGTRRGLRHHDASGDSPAADVAAMIARITAHDADPLLEVDLSRPEIGVPVVKIIAPRIAYLASREGHHHHHH,not soluble
8,MSLTDPAPEPEPPVEGQWTALTASPDTWDETKRADISYQLLLYSFADSDGDGYGDLNGVTQKLDYLNQLGVKALWLSPIHPCMSYHGYDVTDYTKVNPQLGTESDFDRLVTEAHNRGIKIYLDYVMNHTGTAHPWFTEASSSSESPYRNYYSFSEDPKTDIAAGKIAMITQEGAAGYNAAEWFQVSDETAAVKGLLKFTLDWSNAPSPILVVSTGTKADEDNPDTGTDNAKYLYYGEDICKKFYDKGNNIYELTVDFESTWGLLIRTSNASFWPSGTKYGASSSSEKLALNKDFKLTNAGNPANIMFDSQQITYFHSHFCTDWFADLNYGPVDQAGESPAYQAIADAAKGWIARGVDGLRLDAVKHIYHSETSEENPRFLKMFYEDMNAYYKQKGHTDDFYMIGEVLSEYDKVAPYYKGLPALFEFSFWYRLEWGINNSTGCYFAKDILSYQQKYANYRSDYIEATKLSNHDEDRTSSKLGKSADKCKLAAAVLLTSAGHPYIYYGEELGLYGTKDNGDEYVRSPMLWGDSYTTNYTDKTDATVSKNVKTVADQQADTHSLLNIYFSLTRLRNTYPALAEGNMTKHSVYNEGHHHHHH,not soluble
9,MSLTFKLRETIKINHKKVQRIMQWLGLKGKCKTQKYRSYQGEVGHIADNLLQRDFTATQPNEKWTTDITEFKCAEGKLYLSPIKDLFNNEIIAYDLARSPNFEQITRMMKQAVARLEGAKPILHSDQGWQYQMIGYQNILRENGIQQSMSRKGNCLYNSAMESFFGRLKTECYYGKRFETFEQLEKTIHEYIHYYNHERIQGKLKGLSPVNYRTQSLNEGHHHHHH,not soluble
10,MSLTGELHPIFNADALGASHRLHAHTHGDGTKIVGYYNKHLRLGRFTEQTYKSWHAEVDAKASSILNGSGSLLAFYGDHIIEVVDREGKKITLTVNGGIKQVLWHPLAYLDSCLVVLTGQETIEIYELNEPRYEKPTLVLNEPTSQLGISSRVIDITNIAFAPDGLSLYLFSTSEGGDVHVICPLLPSRIKADRAKWARQWNKATALYSTLTKDTPDDAKVATIEYLEFVTQLLQAIEKNGSDGELVIPEHRRRTISQGPYNIHGFPEKLYSAVGTKLTVVPLGESEAHLLLLSFDDSTNILLFPSTEVLMSWTKDLKNAYTLMLVEEFTATGTAFATCDGVAVLGIDSAQRVEIPYLQALEDCIRDCNLAALQDINFTSSICKIPGKFHSVARFNAPGNKGIILVGDHHAKIVPSTEAAKSDTETELDSQPGKEPTYTVCFPNSLEEILNTNKELQRRKHQPLPLVPPALKNEGHHHHHH,soluble
11,MSLTIPGVVIIGGAHGTLALARSLGVLNVPVYYLTHDSPLPGWSRFVRETIRWAGPHDDGAMAFLREMAEKPGLKGCLLVPSGDGEVQLVSQHREELSALYKIILPEWTNLQWLCEKPLLYKRAAELGVSIPRTYALTSAADIDGLDVMFPVILKPHMGGGNTSIARAKVIRADDREELKAAFVDASGEIGPDNVVVQELIPGGGESQFSYAALWLNGEPIAEFTARRARQYPVDFGYTSTRVEVVDNRQAIEAARKILKSAGHSGLVEVEFKLDGRDGALKLLDVNPRPWSWFGLCSAAGINLGGLLWRVANEGHHHHHH,soluble
12,MSLTISTQCSKCEKIYDDNKRKICSGKCGHSICESCFDRKSSDICSICNQIDSFGVKCINRSAMEMVEMKKNAFSFSDIWIFKFDPKEHFNGPCSKCNDYSTMLRVCTNSAVQAGLLVKTGENSFDLTPHTTDELLETIILRIKSIGICADCVINNGLKEDVVMMKNIKRLYDIAKALNYLSMFSFSMKQIEREIEEFKNKKNQLRFYNMYYHFVKETYPEIMKWLKNDLVRISAPPCWQVLLKIVSIMTQAAQSLFLKSAERELQISKEKLRDSKGNSEWQKTVDKLENFRDFLEINHVDAEIQPIDMWNFFVLCTTEELDKVTAIINRNLKIQGKSSRETLKEVYYLTRDVRKTLPFQIPERFAGFIDRFIRVLVGENLDEEQALEIQSTT,not soluble
13,MSLTKDLLSELIQKHRSFNLSYSAYKQLYEGDHAILQQKQKEQYKPDNRLVVNFAKYIVDTFNGYFIGVPVQTSHENKQVSNYLELLDGYNDQDDNNAELSKICSIYGHGYELVFNDENAEVGITYLTPLEGFIVYDDSIRQKPLFAVRYFYNKDGVLEGSYSDASKITYFKDGEKDLEIGESDPHPFDGVPMIEYVENEERQSLLASVVTLINAFNKAISEKANDVEYFADAYLKILGAELDDETLKSLRDTRIINLKDTDAQQLTVEFLQKPDADATQEHLLDRLENLIFRTAMVANISDESFGTASGIALRYRLQAMDNLAKTKERKFMSGMNRRYKLIASYPTSKIGPKDWIGIKYKFTRNLPANLLEESQIAGNLAGIVSEETQVGVLSIVENPQKEIEKKNSDRPTLISRKAGGLNGQDTTTVLEGHHHHHH,not soluble
14,MSLTKQVYIIHGYRASSTNHWFPWLKKRLLADGVQADILNMPNPLQPRLEDWLDTLSLYQHTLHENTYLVAHSLGCPAILRFLEHLQLRKQLGGIILVSGFAKSLPTLQMLDEFTQGSFDHQKIIESAKHRAVIASKDDQIVPFSFSKDLAQQIDAALYEVQHGGHFLEDEGFTSLPIVYDVLTSYFSKETREGGSHHHHHH,soluble
15,MSLTLFGKTSRRPGLPRQAAGLALAACALASLPAQAKESDGDRLQGIVEPIVARQPLKLGVTVVHLLDNFYKGIAYGIVDEARRSNVEVVQVAVAGAYGNVQQQFAQLQSFKTLGVDYAVLSPAAYSGYDPVVADLARSGIKTISAGIPVNSDKIAFGVLQDDTLIGKVLGKALCDDGAQGKQVIVVPGAAGLEWPRLRYEGFKEVASACGAKLTPAAFRGEMSLADGMAQTQDLLMRTPDAEYVFTPVTFLGIGAVRAARQANRPVKVLTSAMVKENEAMIREGRLLAVASEPGVIMGRLIVQYAIREHEGLPMPPLDKPTRSVPYPHFNVPITVVDKSNEGHHHHHH,soluble
16,MSLTLTEVAEFVGVSAMTVSRALRMPEKVNPELRDRIDAAVSQLGYVPNLQARNLASVHSDLILAVVPTFSSPGFLPVSEALQKVLTERGYTMMFMESGHDGQSEQKTFEKMLAYNPAAIIQFNIDTIESCTQLLANVDVPILEIGALNTHPVGMCIGVDYGKAVKQIVTHLADASLKNIALLCTPANNTMFRQLLSGWNTAMLALNRSPHRVVTTHLPSTIATGVNIFKDMMITWGDLDALICTSDEMACGCMMACHSAGIKVPNTVAIASLGGGVLSTVCSPALTTVEFPWHDIGVKAGKALLELLNDKPGEKFIEIPSVLKVRASTAEGHHHHHH,soluble
